B1: F1*; the commonest letter at each place (parent)
chain: GAGACCGCAACTGAAAAGTTGTTATCACTTGTCGTAAGACACTTTGGATGGGTTGAAGTTCTGCACGTAGAAGCAAAAGGC

Variants of: B1
Experiment: fraction ligated after 30 min (ligated reads / total reads); higher = more ligase activity
Settings: with F1*sub RNA substrate (template-directed ligation), 42 °C
Procedure, shortened: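 Ribozyme variants were transcribed with T7 from PCR-amplified oligo-pool templates and gel-purified. Ligated and unligated bands, separated on gel, were reverse transcribed with barcoded primers and sequenced on a MiSeq, with core bases filtered at quality ≥20. Fraction ligated per variant was computed as ligated reads divided by total reads.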

Variant	fraction ligated
A41T T49A	0.686
A41T T49G	0.749
A41T T49C	0.658
C40G T49A	0.683
C40G T49C	0.365
C40G T49G	0.763
A41G T49C	0.564
A41G T49G	0.739
A41G T49A	0.671
A41G A57C	0.735
A41G A57T	0.76
A41G A57G	0.787
C40T T45A	0.791
C40T T45G	0.195
C40T T45C	0.77
C42A A56T	0.798
C42A A56G	0.781
C42A A56C	0.794
C40G T45C	0.669
C40G T45G	0.0145
C40G T45A	0.688

Variant	fraction ligated
C40G G47T	0.438
C40G G47A	0.783
C40G G47C	0.147
C42A T43G	0.805
C42A T43C	0.825
C42A T43A	0.82
C42A G47A	0.832
C42A G47C	0.695
C42A G47T	0.704
C42G T43G	0.827
C42G T43A	0.856
C42G T43C	0.836
A41G G55A	0.785
A41G G55T	0.754
A41G G55C	0.663
C42A G46T	0.789
C42A G46A	0.821
C42A G46C	0.811
C40A G55T	0.787
C40A G55C	0.504
C40A G55A	0.807

Variant	fraction ligated
C42G A57T	0.834
C42G A57G	0.807
C42G A57C	0.818
T43A A57C	0.792
T43A A57G	0.793
T43A A57T	0.833
C42A	0.84
C42G	0.854
C42T	0.856
C42G A48C	0.765
C42G A48G	0.821
C42G A48T	0.792
A41T A56G	0.778
A41T A56T	0.792
A41T A56C	0.784
C40T A57C	0.823
C40T A57T	0.798
C40T A57G	0.839
A41C	0.775
A41G	0.802
A41T	0.837

Variant	fraction ligated
C40T C42G	0.857
C40T C42T	0.853
C40T C42A	0.845
C42G G46A	0.808
C42G G46T	0.793
C42G G46C	0.816
A41C G50C	0.168
A41C G50A	0.28
A41C G50T	0.597
C42A G55A	0.837
C42A G55T	0.814
C42A G55C	0.746
T43A G46A	0.789
T43A G46T	0.81
T43A G46C	0.789
A41G A48T	0.625
A41G A48C	0.736
A41G A48G	0.76
A41G A56G	0.764
A41G A56T	0.756
A41G A56C	0.755

— the supplement of paper PMC6755084
